Assay results from US6787359B1, “Gene transfer methods” (Takara Shuzo Co., Ltd., priority 1998, dated 2004).

Tested on: mouse leukemia L1210 cells
Assay: Gene transfer with PM5neo virus on coated plates, G418-resistant cells by WST-1 absorbance
Type: cell-based
Conditions: for Absorbance difference (450 nm-650 nm), G418-resistant cells: Experiment 2
Experimental: 50 μl of […] solution of H-271, H-296, C-274, CH-271, CH-296, ColV, human basic fibroblast growth factor (bFGF; Progen), tenascin (Gibco) or epidermal growth factor (EGF; Takara Shuzo), or 50 μl of 2% bovine serum albumin (BSA, Sigma) was added to each well of a 96-well non-treated microplate for cell culture (Falcon). The plate was allowed to stand at 4° C. overnight and then washed twice with phosphate buffered saline (PBS; Roman Kogyo). Alternatively, after the plate was treated as described above, 0.1 ml of 4 mg/ml solution of 1-ethyl-3-dimethylaminopropylcarbodiimide hydrochloride (Sigma) in sterile pure water was dispensed to each well. The reaction was allowed to proceed at 37° C. for 2 hours. The plate was washed extensively with pure water to prepare a carbodiimide-treated plate. These plates were stored at 4° C. until viral infection experiments were conducted.
10^4 mouse leukemia L1210 cells (ATCC CCL-219), which had been grown in RPMI 1640 medium (Bio Whittaker) supplemented with 10% FCS, 50 units/ml penicillin and 50 μg/ml streptomycin, and 50 μl of PM5neo virus supernatant (10^4 cfu/ml) were added to the well of the microplate. After the plate was incubated for 24 hours, the medium was changed to the same medium containing G418 (Gibco) at a final concentration of 0.75 mg/ml, and the plate was then incubated for additional 48 hours. G418-resistance cells were assessed according to the method as described in S. Kim et al. [Gene Therapy, 3:1018-1020 (1996)] with a partial modification in which color developed using Premix WST-1 reagent (Takara Shuzo) was measured as absorbance at 450 nm. […] Absorbance at 450 nm and 650 nm was then measured using a microplate reader, and the difference (450 nm-650 nm) was calculated. The value obtained using a plate coated with 2% BSA without carbodiimide treatment was defined as background.

B1: EGF: epidermal growth factor (Takara Shuzo) (protein, UniProt P01133 23-1207, looked up)
Pro-epidermal growth factor: PQHWSCPEGTLAGNGNSTCVGPAPFLIFSHGNSIFRIDTEGTNYEQLVVDAGVSVIMDFHYNEKRIYWVDLERQLLQRVFLNGSRQERVCNIEKNVSGMAINWINEEVIWSNQQEGIITVTDMKGNNSHILLSALKYPANVAVDPVERFIFWSSEVAGSLYRADLDGVGVKALLETSEKITAVSLDVLDKRLFWIQYNREGSNSLICSCDYDGGSVHISKHPTQHNLFAMSLFGDRIFYSTWKMKTIWIANKHTGKDMVRINLHSSFVPLGELKVVHPLAQPKAEDDTWEPEQKLCKLRKGNCSSTVCGQDLQSHLCMCAEGYALSRDRKYCEDVNECAFWNHGCTLGCKNTPGSYYCTCPVGFVLLPDGKRCHQLVSCPRNVSECSHDCVLTSEGPLCFCPEGSVLERDGKTCSGCSSPDNGGCSQLCVPLSPVSWECDCFPGYDLQLDEKSCAASGPQPFLLFANSQDIRHMHFDGTDYGTLLSQQMGMVYALDHDPVENKIYFAHTALKWIERANMDGSQRERLIEEGVDVPEGLAVDWIGRRFYWTDRGKSLIGRSDLNGKRSKIITKENISQPRGIAVHPMAKRLFWTDTGINPRIESSSLQGLGRLVIASSDLIWPSGITIDFLTDKLYWCDAKQSVIEMANLDGSKRRRLTQNDVGHPFAVAVFEDYVWFSDWAMPSVMRVNKRTGKDRVRLQGSMLKPSSLVVVHPLAKPGADPCLYQNGGCEHICKKRLGTAWCSCREGFMKASDGKTCLALDGHQLLAGGEVDLKNQVTPLDILSKTRVSEDNITESQHMLVAEIMVSDQDDCAPVGCSMYARCISEGEDATCQCLKGFAGDGKLCSDIDECEMGVPVCPPASSKCINTEGGYVCRCSEGYQGDGIHCLDIDECQLGEHSCGENASCTNTEGGYTCMCAGRLSEPGLICPDSTPPPHLREDDHHYSVRNSDSECPLSHDGYCLHDGVCMYIEALDKYACNCVVGYIGERCQYRDLKWWELRHAGHGQQQKVIVVAVCVVVLVMLLLLSLWGAHYYRTQKLLSKNPKNPYEESSRDVRSRRPADTEDGMSSCPQPWFVVIKEHQDLKNGGQPVAGEDGQAADGSMQPTSWRQEPQLCGMGTEQGCWIPVSSDKGSCPQVMERSFHMPSYGTQTLEGGVEKPHSLLSANPLWQQRALDPPHQMELTQ
modifications: Pro-epidermal growth factor
Q: Which “Absorbance difference (450 nm-650 nm), G418-resistant cells” value (plate treated with carbodiimide) does the source give for B1 here?
A: 0.077 ± 0.038

Q: And the “Absorbance difference (450 nm-650 nm), G418-resistant cells” value (plate untreated)?
A: 0.030 ± 0.021

Q: And the “Appearance of G418-resistant cells (in words)” value (carbodiimide treatment carried out)?
A: increased
